According to patent publication US20080213836:

T1: Gly-Asp-Asp-Asp-Asp-Lys-β-naphthylamide
T1 chain: GDDDDK

T2: Z-Phe-Arg-MCA
T2 chain: FR

T3: Pro-Phe-Arg-MCA
T3 chain: PFR

T4: Boc-Glu(OBzl)-Ala-Arg-MCA
T4 chain: EAR


Assays:
[1] = molecular target: T1, Gly-Asp-Asp-Asp-Asp-Lys-β-naphthylamide
Z-Phe-Arg-MCA = molecular target: T2, Z-Phe-Arg-MCA
[2] = molecular target: recombinant fusion protein of Medaka trypsinogen
Pro-Phe-Arg-MCA = molecular target: T3, Pro-Phe-Arg-MCA
[3] = molecular target: T4, Boc-Glu(OBzl)-Ala-Arg-MCA

| Protein | enzyme activity against wild-type [1] | enzyme activity against wild-type (Z-Phe-Arg-MCA) | conversion of trypsinogen to active enzyme [2] | enzyme activity against wild-type (Pro-Phe-Arg-MCA) | enzyme activity against wild-type [3] |
| --- | --- | --- | --- | --- | --- |
| Medaka EP-1 serine protease domain mutant K63A (protein) VVGGVNAEKGAWPWMVSLHWRGRHGCGASLIGRDWLLTAAHCVYGANTHLQYWSAVLGLHAQSSMNSQEVQIRQVDRIIINKNYNRRTKEADIAMMHLQQPVNFTEWVLPVCLASEDQHFPAGRRCFIAGWGRDAEGGSLPDILQEAEVPLVDQDECQRLLPEYTFTSSMLCAGYPEGGVDSCQGDSGGPLMCLEDARWTLIGVTSFGVGCGRPERPGAYARVSAFTSWIAETRRSSFSDLD | The same held true for all the other mutants except for F144A | The same held true for all the other mutants except for F144A | A total of 12 mutants could convert the recombinant Medaka trypsinogen to its active enzyme (data not shown) | The same held true for all the other mutants except for F144A | The same held true for all the other mutants except for F144A |
| Medaka EP-1 serine protease domain mutant E173K (protein) VVGGVNAEKGAWPWMVSLHWRGRHGCGASLIGRDWLLTAAHCVYGKNTHLQYWSAVLGLHAQSSMNSQEVQIRQVDRIIINKNYNRRTKEADIAMMHLQQPVNFTEWVLPVCLASEDQHFPAGRRCFIAGWGRDAEGGSLPDILQEAEVPLVDQDKCQRLLPEYTFTSSMLCAGYPEGGVDSCQGDSGGPLMCLEDARWTLIGVTSFGVGCGRPERPGAYARVSAFTSWIAETRRSSFSDLD | consistently resulted in reduced enzyme activity for synthetic peptide substrates | consistently resulted in reduced enzyme activity for synthetic peptide substrates | A total of 12 mutants could convert the recombinant Medaka trypsinogen to its active enzyme (data not shown) | consistently resulted in reduced enzyme activity for synthetic peptide substrates | consistently resulted in reduced enzyme activity for synthetic peptide substrates |
| Medaka EP-1 serine protease domain mutant K63E (protein) VVGGVNAEKGAWPWMVSLHWRGRHGCGASLIGRDWLLTAAHCVYGENTHLQYWSAVLGLHAQSSMNSQEVQIRQVDRIIINKNYNRRTKEADIAMMHLQQPVNFTEWVLPVCLASEDQHFPAGRRCFIAGWGRDAEGGSLPDILQEAEVPLVDQDECQRLLPEYTFTSSMLCAGYPEGGVDSCQGDSGGPLMCLEDARWTLIGVTSFGVGCGRPERPGAYARVSAFTSWIAETRRSSFSDLD | The same held true for all the other mutants except for F144A | The same held true for all the other mutants except for F144A | A total of 12 mutants could convert the recombinant Medaka trypsinogen to its active enzyme (data not shown) | The same held true for all the other mutants except for F144A | The same held true for all the other mutants except for F144A |
| Medaka EP-1 serine protease domain mutant F144S (protein) VVGGVNAEKGAWPWMVSLHWRGRHGCGASLIGRDWLLTAAHCVYGKNTHLQYWSAVLGLHAQSSMNSQEVQIRQVDRIIINKNYNRRTKEADIAMMHLQQPVNFTEWVLPVCLASEDQHFPAGRRCSIAGWGRDAEGGSLPDILQEAEVPLVDQDECQRLLPEYTFTSSMLCAGYPEGGVDSCQGDSGGPLMCLEDARWTLIGVTSFGVGCGRPERPGAYARVSAFTSWIAETRRSSFSDLD | consistently resulted in reduced enzyme activity for synthetic peptide substrates | consistently resulted in reduced enzyme activity for synthetic peptide substrates | A total of 12 mutants could convert the recombinant Medaka trypsinogen to its active enzyme (data not shown) | consistently resulted in reduced enzyme activity for synthetic peptide substrates | consistently resulted in reduced enzyme activity for synthetic peptide substrates |
| Medaka EP-1 serine protease domain mutant T105A (protein) VVGGVNAEKGAWPWMVSLHWRGRHGCGASLIGRDWLLTAAHCVYGKNTHLQYWSAVLGLHAQSSMNSQEVQIRQVDRIIINKNYNRRAKEADIAMMHLQQPVNFTEWVLPVCLASEDQHFPAGRRCFIAGWGRDAEGGSLPDILQEAEVPLVDQDECQRLLPEYTFTSSMLCAGYPEGGVDSCQGDSGGPLMCLEDARWTLIGVTSFGVGCGRPERPGAYARVSAFTSWIAETRRSSFSDLD | The same held true for all the other mutants except for F144A | The same held true for all the other mutants except for F144A | A total of 12 mutants could convert the recombinant Medaka trypsinogen to its active enzyme (data not shown) | The same held true for all the other mutants except for F144A | The same held true for all the other mutants except for F144A |
| Medaka EP-1 serine protease domain mutant F144A (protein) VVGGVNAEKGAWPWMVSLHWRGRHGCGASLIGRDWLLTAAHCVYGKNTHLQYWSAVLGLHAQSSMNSQEVQIRQVDRIIINKNYNRRTKEADIAMMHLQQPVNFTEWVLPVCLASEDQHFPAGRRCAIAGWGRDAEGGSLPDILQEAEVPLVDQDECQRLLPEYTFTSSMLCAGYPEGGVDSCQGDSGGPLMCLEDARWTLIGVTSFGVGCGRPERPGAYARVSAFTSWIAETRRSSFSDLD | hydrolyzed the GD4K-βNA as well as the three MCA-containing substrates at an elevated rate when compared with the wild-type enzyme | hydrolyzed the GD4K-βNA as well as the three MCA-containing substrates at an elevated rate when compared with the wild-type enzyme | A total of 12 mutants could convert the recombinant Medaka trypsinogen to its active enzyme (data not shown) | hydrolyzed the GD4K-βNA as well as the three MCA-containing substrates at an elevated rate when compared with the wild-type enzyme | hydrolyzed the GD4K-βNA as well as the three MCA-containing substrates at an elevated rate when compared with the wild-type enzyme |
| Medaka EP-1 serine protease domain mutant T105R (protein) VVGGVNAEKGAWPWMVSLHWRGRHGCGASLIGRDWLLTAAHCVYGKNTHLQYWSAVLGLHAQSSMNSQEVQIRQVDRIIINKNYNRRRKEADIAMMHLQQPVNFTEWVLPVCLASEDQHFPAGRRCFIAGWGRDAEGGSLPDILQEAEVPLVDQDECQRLLPEYTFTSSMLCAGYPEGGVDSCQGDSGGPLMCLEDARWTLIGVTSFGVGCGRPERPGAYARVSAFTSWIAETRRSSFSDLD | The same held true for all the other mutants except for F144A | The same held true for all the other mutants except for F144A | A total of 12 mutants could convert the recombinant Medaka trypsinogen to its active enzyme (data not shown) | The same held true for all the other mutants except for F144A | The same held true for all the other mutants except for F144A |
